US20200353078A1
Positions count from the first letter of the chain named. Values belong to the binder of their own block, whether it stands above or below them.

How the values were obtained:
[1] = target: ST2 on human umbilical vein endothelial cells (human) (UniProt Q01638); assay: cell-based or functional assay
[2] = target: Human IL-33 (Axxora/Adipogen AG-40B-0038) (human) (UniProt O95760); assay: HTRF epitope competition: purified scFv against IL330101 IgG for biotinylated human IL-33
[3] = target: T1, Human IL-33 Flag®His (human); assay: HTRF competition: purified scFv titrated against human ST2-Fc for FLAG-His human IL-33
T1 sequence: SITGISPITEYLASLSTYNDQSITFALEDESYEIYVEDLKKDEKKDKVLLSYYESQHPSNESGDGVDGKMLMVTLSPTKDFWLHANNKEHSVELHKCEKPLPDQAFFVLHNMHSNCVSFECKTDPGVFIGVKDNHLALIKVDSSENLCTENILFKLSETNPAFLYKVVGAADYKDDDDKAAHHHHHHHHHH

Sequence of ST2 on human umbilical vein endothelial cells (human) (Q01638 19-556): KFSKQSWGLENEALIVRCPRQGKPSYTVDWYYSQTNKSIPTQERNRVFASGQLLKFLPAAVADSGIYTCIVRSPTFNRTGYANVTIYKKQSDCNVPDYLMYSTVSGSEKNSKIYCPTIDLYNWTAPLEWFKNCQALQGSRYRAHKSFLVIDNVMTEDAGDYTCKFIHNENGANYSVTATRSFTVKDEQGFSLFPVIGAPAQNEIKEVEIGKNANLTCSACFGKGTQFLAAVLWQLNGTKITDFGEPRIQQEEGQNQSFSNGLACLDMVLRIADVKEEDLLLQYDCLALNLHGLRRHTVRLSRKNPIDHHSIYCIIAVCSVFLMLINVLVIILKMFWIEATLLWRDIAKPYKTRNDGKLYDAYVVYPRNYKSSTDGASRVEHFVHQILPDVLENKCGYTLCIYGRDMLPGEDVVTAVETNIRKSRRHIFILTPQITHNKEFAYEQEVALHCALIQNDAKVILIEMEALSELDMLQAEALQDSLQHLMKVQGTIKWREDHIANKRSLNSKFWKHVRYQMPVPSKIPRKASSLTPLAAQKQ

IC50 (nM) Untreated, HUVEC NFkB translocation assay [1]: 0.19 nM
B1: IL33-02 (ligand)
chain: MHHHHHHHHHHAAGLNDIFEAQKIEWHEAAIEGRSITGISPITEYLASLSTYNDQSITFALEDESYEIYVEDLKKDEKKDKVLLSYYESQHPSNESGDGVDGKMLMVTLSPTKDFWLHANNKEHSVELHKSEKPLPDQAFFVLHNMHSNCVSFECKTDPGVFIGVKDNHLALIKVDSSENLCTENILFKLSET

IC50 (nM) Untreated, HUVEC NFkB translocation assay [1]: 0.14 nM
B2: IL33-14 (ligand)
chain: B1 chain with C155S, C182S

IC50 (nM) Untreated, HUVEC NFkB translocation assay [1]: 0.1 nM
B3: IL33-05 (ligand)
chain: B1 chain with S131C, C182S

IC50 (nM) Untreated, HUVEC NFkB translocation assay [1]: 0.61 nM
B4: IL33-10 (ligand)
chain: B1 chain with S131C, C150S, C155S

IC50 (nM) Untreated, HUVEC NFkB translocation assay [1]: 0.2 nM
B5: IL33-09 (ligand)
chain: B1 chain with S131C, C150S, C182S

IC50 (nM) Untreated, HUVEC NFkB translocation assay [1]: 0.21 nM
B6: IL33-08 (ligand)
chain: B1 chain with C155S

IC50 (nM) Untreated, HUVEC NFkB translocation assay [1]: 0.17 nM
B7: IL33-16 (ligand)
chain: B1 chain with C150S, C155S, C182S

IC50 (nM) Untreated, HUVEC NFkB translocation assay [1]: 0.12 nM
B8: IL33-15 (ligand)
chain: B1 chain with S131C, C150S, C155S, C182S

IC50 (nM) Untreated, HUVEC NFkB translocation assay [1]: 0.28 nM
B9: IL33-06 (ligand)
chain: B1 chain with C150S

IC50 (nM) Untreated, HUVEC NFkB translocation assay [1]: 0.08 nM
B10: IL33-13 (ligand)
chain: B1 chain with C150S, C182S

IC50 (nM) Untreated, HUVEC NFkB translocation assay [1]: 0.22 nM
B11: IL33-07 (ligand)
chain: B1 chain with S131C, C155S, C182S

IC50 (nM) Untreated, HUVEC NFkB translocation assay [1]: 0.16 nM
B12: IL33-03 (ligand)
chain: B1 chain with S131C, C150S

IC50 (nM) Untreated, HUVEC NFkB translocation assay [1]: 0.39 nM
B13: IL33-12 (ligand)
chain: B1 chain with C150S, C155S

IC50 (nM) Untreated, HUVEC NFkB translocation assay [1]: 0.17 nM
B14: IL33-04 (ligand)
chain: B1 chain with S131C, C155S

IC50 (read off the curve) [2]: 7 nM
B15: IL330259 scFv (scFv, part only; not given: linker, domain order and tags, V domains shown, not shown: another chain or arm of the molecule; small tags and cut ends)
VH: EVQLLESGGGLVQPGGSLRLSCAASGFTFSSYAMSWVRQAPGKGLEWVSASTPWQGSTYYADSVKGRFTISRDNSKNTLYLQMNSLRAEDTAVYYCVRVVAGYFDSWGRGTLVTVSS
VL: SYVLTQPPSVSVSPGQTARITCSGDALPKQYAHWYQQKPGQAPALVIYKDTERPSGIPERFSGSSSGTTVTLTISGVQAEDEADYYCQSADSSGASRVFGGGTKVTVL

IC50 (read off the curve) [3]: 100 nM
B16: IL330020 scFv (scFv, part only; not given: linker, domain order and tags, V domains shown, not shown: another chain or arm of the molecule; small tags and cut ends)
VH: QVQLVQSGAEVKKPGASVKVSCKASGYTFTSYGISWVRQAPGQGLEWMGWISDYQGYTKYAEKFQGRVTMTTDTSTNTAYMELRSLRSDDTAVYYCARLYSSGWIRQYHFDYWGRGTLVTVSS
VL: SYELTQPPSVSVSPGQTASITCSGDNLKDKYVSWYQQKPGQAPVLVLYQDRKRPSGIPERFSGSNSGNTATLTISGTQAMDEADYYCQAWDSGTAFGGGTKVTVL
